Key:
[1] = target: wild type human MIC-1 (human) (UniProt Q99988); assay: SPR blocking; wtMIC-1 mixed with 4 nM mIgG1, over immobilised hGFRAL(ECR)-Fab; RU of wtMIC-1 binding
[2] = target: wild type human MIC-1 (human) (UniProt Q99988); assay: SPR blocking; wtMIC-1 mixed with 0.25 nM mIgG1, over immobilised mGFRAL(ECR)-Fab; RU of wtMIC-1 binding
[3] = target: wild type human MIC-1 (human) (UniProt Q99988); assay: SPR blocking; wtMIC-1 mixed with 0 nM mIgG1, over immobilised hGFRAL(ECR)-Fab; RU of wtMIC-1 binding
[4] = target: wild type human MIC-1 (human) (UniProt Q99988); assay: SPR blocking; wtMIC-1 mixed with 0.5 nM mIgG1, over immobilised hGFRAL(ECR)-Fab; RU of wtMIC-1 binding
[5] = target: wild type human MIC-1 (human) (UniProt Q99988); assay: SPR blocking; wtMIC-1 mixed with 2 nM mIgG1, over immobilised hGFRAL(ECR)-Fab; RU of wtMIC-1 binding
[6] = target: wild type human MIC-1 (human) (UniProt Q99988); assay: SPR blocking; wtMIC-1 mixed with 8 nM mIgG1, over immobilised mGFRAL(ECR)-Fab; RU of wtMIC-1 binding
[7] = target: wild type human MIC-1 (human) (UniProt Q99988); assay: SPR blocking; wtMIC-1 mixed with 0.125 nM mIgG1, over immobilised hGFRAL(ECR)-Fab; RU of wtMIC-1 binding
[8] = target: wild type human MIC-1 (human) (UniProt Q99988); assay: SPR blocking; wtMIC-1 mixed with 0 nM mIgG1, over immobilised mGFRAL(ECR)-Fab; RU of wtMIC-1 binding
[9] = target: wild type human MIC-1 (human) (UniProt Q99988); assay: SPR blocking; wtMIC-1 mixed with 8 nM mIgG1, over immobilised hGFRAL(ECR)-Fab; RU of wtMIC-1 binding
[10] = target: wild type human MIC-1 (human) (UniProt Q99988); assay: SPR blocking; wtMIC-1 mixed with 4 nM mIgG1, over immobilised mGFRAL(ECR)-Fab; RU of wtMIC-1 binding
[11] = target: wild type human MIC-1 (human) (UniProt Q99988); assay: SPR blocking; wtMIC-1 mixed with 0.125 nM mIgG1, over immobilised mGFRAL(ECR)-Fab; RU of wtMIC-1 binding
[12] = target: wild type human MIC-1 (human) (UniProt Q99988); assay: SPR blocking; wtMIC-1 mixed with 2 nM mIgG1, over immobilised mGFRAL(ECR)-Fab; RU of wtMIC-1 binding
[13] = target: wild type human MIC-1 (human) (UniProt Q99988); assay: SPR blocking; wtMIC-1 mixed with 0.5 nM mIgG1, over immobilised mGFRAL(ECR)-Fab; RU of wtMIC-1 binding
[14] = target: wild type human MIC-1 (human) (UniProt Q99988); assay: SPR blocking; wtMIC-1 mixed with 0.25 nM mIgG1, over immobilised hGFRAL(ECR)-Fab; RU of wtMIC-1 binding
[15] = target: wild type human MIC-1 (human) (UniProt Q99988); assay: SPR blocking; wtMIC-1 mixed with 1 nM mIgG1, over immobilised hGFRAL(ECR)-Fab; RU of wtMIC-1 binding
[16] = target: wild type human MIC-1 (human) (UniProt Q99988); assay: SPR blocking; wtMIC-1 mixed with 1 nM mIgG1, over immobilised mGFRAL(ECR)-Fab; RU of wtMIC-1 binding

wild type human MIC-1 (human), sequence (Q99988 197-308 limits assumed): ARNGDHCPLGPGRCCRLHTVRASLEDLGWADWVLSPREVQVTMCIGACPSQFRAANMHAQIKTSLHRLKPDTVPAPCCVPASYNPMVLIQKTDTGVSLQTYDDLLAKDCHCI

Response (RU) [1]: 59.1 RU
Response (RU) [2]: 54.6 RU
Response (RU) [3]: 58.3 RU
Response (RU) [4]: 58.4 RU
Response (RU) [5]: 60 RU
Response (RU) [6]: 55.5 RU
Response (RU) [7]: 58.4 RU
Response (RU) [8]: 55.6 RU
Response (RU) [9]: 59.4 RU
Response (RU) [10]: 55.4 RU
Response (RU) [11]: 55.3 RU
Response (RU) [12]: 54.5 RU
Response (RU) [13]: 55 RU
Response (RU) [14]: 59.4 RU
Response (RU) [15]: 59.3 RU
Response (RU) [16]: 54.1 RU
Substance: isotype control (mIgG1) (antibody)
